Molecular target: γ-tubulin ring complex (γTuRC), purified (human (endogenous in HEK293T), UniProt P23258 1-451; Q9BSJ2 1-902; Q96CW5 1-907; Q9UGJ1 1-667; Q96RT8 1-1024; Q96RT7 …)
Assay: cell-based or functional assay

B1: recombinant FLAG-PolD1 (wild type), purified (natural protein, human, UniProt P28340 1-1107, looked up)
chain: MDGKRRPGPGPGVPPKRARGGLWDDDDAPRPSQFEEDLALMEEMEAEHRLQEQEEEELQSVLEGVADGQVPPSAIDPRWLRPTPPALDPQTEPLIFQQLEIDHYVGPAQPVPGGPPPSRGSVPVLRAFGVTDEGFSVCCHIHGFAPYFYTPAPPGFGPEHMGDLQRELNLAISRDSRGGRELTGPAVLAVELCSRESMFGYHGHGPSPFLRITVALPRLVAPARRLLEQGIRVAGLGTPSFAPYEANVDFEIRFMVDTDIVGCNWLELPAGKYALRLKEKATQCQLEADVLWSDVVSHPPEGPWQRIAPLRVLSFDIECAGRKGIFPEPERDPVIQICSLGLRWGEPEPFLRLALTLRPCAPILGAKVQSYEKEEDLLQAWSTFIRIMDPDVITGYNIQNFDLPYLISRAQTLKVQTFPFLGRVAGLCSNIRDSSFQSKQTGRRDTKVVSMVGRVQMDMLQVLLREYKLRSYTLNAVSFHFLGEQKEDVQHSIITDLQNGNDQTRRRLAVYCLKDAYLPLRLLERLMVLVNAVEMARVTGVPLSYLLSRGQQVKVVSQLLRQAMHEGLLMPVVKSEGGEDYTGATVIEPLKGYYDVPIATLDFSSLYPSIMMAHNLCYTTLLRPGTAQKLGLTEDQFIRTPTGDEFVKTSVRKGLLPQILENLLSARKRAKAELAKETDPLRRQVLDGRQLALKVSANSVYGFTGAQVGKLPCLEISQSVTGFGRQMIEKTKQLVESKYTVENGYSTSAKVVYGDTDSVMCRFGVSSVAEAMALGREAADWVSGHFPSPIRLEFEKVYFPYLLISKKRYAGLLFSSRPDAHDRMDCKGLEAVRRDNCPLVANLVTASLRRLLIDRDPEGAVAHAQDVISDLLCNRIDISQLVITKELTRAASDYAGKQAHVELAERMRKRDPGSAPSLGDRVPYVIISAAKGVAAYMKSEDPLFVLEHSLPIDTQYYLEQQLAKPLLRIFEPILGEGRAEAVLLRGDHTRCKTVLTGKVGGLLAFAKRRNCCIGCRTVLSHQGAVCEFCQPRESELYQKEVSHLNALEERFSRLWTQCQRCQGSLHEDVICTSRDCPIFYMRKKVRKDLEDQEQLLRRFGPPGPEAW
In the case of B1, the “IC50 of inhibition of in vitro microtubule nucleation by purified γTuRCs reconstituted with CDK5RAP2(51–200) (28 nM); PolD1 at various concentrations” value is reported as 98 nM.

Reference: article PMC5601897, “The catalytic subunit of DNA polymerase δ inhibits γTuRC activity and regulates Golgi-derived microtubules” (Nature Communications, 2017)
